Numbered stars: 1 amine (or outer) side, 2 acyl side, 3 side chain; on linkers, the order of the positions; unused ones are H or OH. Square brackets hold non-standard residues; d marks the D form. Side chains are listed from the residue outwards. Ends that are not written are not given here. * marks the point of attachment. C20 diacid = O=C(O)CCCCCCCCCCCCCCCCCCC(=O)*; γGlu = O=C(O)[C@H](CCC(=O)[*:2])N[*:1]; AEEA = NCCOCCOCC(=O)O; Aib = CC(C)(N)C(=O)O

One assay has as its target T1, human GIP receptor (human, UniProt P48546 22-466).
T1 sequence (looked up): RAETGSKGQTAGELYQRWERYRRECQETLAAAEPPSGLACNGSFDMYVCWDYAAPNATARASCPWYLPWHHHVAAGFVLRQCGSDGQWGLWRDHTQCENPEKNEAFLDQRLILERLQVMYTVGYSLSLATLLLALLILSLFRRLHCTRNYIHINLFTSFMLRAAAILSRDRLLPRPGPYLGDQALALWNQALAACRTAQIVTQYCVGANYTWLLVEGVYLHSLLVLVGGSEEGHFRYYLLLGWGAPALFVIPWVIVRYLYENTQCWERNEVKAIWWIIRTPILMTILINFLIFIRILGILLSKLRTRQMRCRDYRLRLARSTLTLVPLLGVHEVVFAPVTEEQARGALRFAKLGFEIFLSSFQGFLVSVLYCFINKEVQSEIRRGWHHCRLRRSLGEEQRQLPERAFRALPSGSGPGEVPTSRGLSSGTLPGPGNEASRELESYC
Nature of the assay: cell-based or functional assay.

The next assay deals with human GLP-1 receptor (human, UniProt P43220 24-463). The experiment in a line: cell-based or functional assay.

B1: Example 37 (peptide)
peptide: Y[Aib]EGTFTSDYSILLDKIAQ[Aib]AFIEYLIK([AEEA-AEEA-γGlu-C20 diacid])GGPSSGAPPPS-NH2
modifications: N-terminus assumed
SMILES: CC[C@H](C)[C@H](NC(=O)[C@H](CCCCN)NC(=O)[C@H](CC(=O)O)NC(=O)[C@H](CC(C)C)NC(=O)[C@H](CC(C)C)NC(=O)[C@@H](NC(=O)[C@H](CO)NC(=O)[C@H](Cc1ccc(O)cc1)NC(=O)[C@H](CC(=O)O)NC(=O)[C@H](CO)NC(=O)[C@@H](NC(=O)[C@H](Cc1ccccc1)NC(=O)[C@@H](NC(=O)CNC(=O)[C@H](CCC(=O)O)NC(=O)C(C)(C)NC(=O)[C@@H](N)Cc1ccc(O)cc1)[C@@H](C)O)[C@@H](C)O)[C@@H](C)CC)C(=O)N[C@@H](C)C(=O)N[C@@H](CCC(N)=O)C(=O)NC(C)(C)C(=O)N[C@@H](C)C(=O)N[C@@H](Cc1ccccc1)C(=O)N[C@H](C(=O)N[C@@H](CCC(=O)O)C(=O)N[C@@H](Cc1ccc(O)cc1)C(=O)N[C@@H](CC(C)C)C(=O)N[C@H](C(=O)N[C@@H](CCCCNC(=O)COCCOCCNC(=O)COCCOCCNC(=O)CC[C@H](NC(=O)CCCCCCCCCCCCCCCCCCC(=O)O)C(=O)O)C(=O)NCC(=O)NCC(=O)N1CCC[C@H]1C(=O)N[C@@H](CO)C(=O)N[C@@H](CO)C(=O)NCC(=O)N[C@@H](C)C(=O)N1CCC[C@H]1C(=O)N1CCC[C@H]1C(=O)N1CCC[C@H]1C(=O)N[C@@H](CO)C(N)=O)[C@@H](C)CC)[C@@H](C)CC
Take B1: in the assay with human GIP receptor, the “hGIPR cAMP EC50 ratio” value came out at 0.532 and the “hGIPR cAMP Rel EC50” value is 0.269 nM. Besides, in the assay with human GLP-1 receptor, the “hGLP1R cAMP EC50 ratio” value came to 0.0533 and the “hGLP1R cAMP Rel EC50” value was determined as 1.15 nM.

B2: Example 38 (peptide)
peptide: Y[Aib]EGTFTSDYSILLDKIAQ[Aib]AFIEYLIEK([AEEA-AEEA-γGlu-C20 diacid])GPSSGAPPPS-NH2
modifications: N-terminus assumed
SMILES: CC[C@H](C)[C@H](NC(=O)[C@H](CCCCN)NC(=O)[C@H](CC(=O)O)NC(=O)[C@H](CC(C)C)NC(=O)[C@H](CC(C)C)NC(=O)[C@@H](NC(=O)[C@H](CO)NC(=O)[C@H](Cc1ccc(O)cc1)NC(=O)[C@H](CC(=O)O)NC(=O)[C@H](CO)NC(=O)[C@@H](NC(=O)[C@H](Cc1ccccc1)NC(=O)[C@@H](NC(=O)CNC(=O)[C@H](CCC(=O)O)NC(=O)C(C)(C)NC(=O)[C@@H](N)Cc1ccc(O)cc1)[C@@H](C)O)[C@@H](C)O)[C@@H](C)CC)C(=O)N[C@@H](C)C(=O)N[C@@H](CCC(N)=O)C(=O)NC(C)(C)C(=O)N[C@@H](C)C(=O)N[C@@H](Cc1ccccc1)C(=O)N[C@H](C(=O)N[C@@H](CCC(=O)O)C(=O)N[C@@H](Cc1ccc(O)cc1)C(=O)N[C@@H](CC(C)C)C(=O)N[C@H](C(=O)N[C@@H](CCC(=O)O)C(=O)N[C@@H](CCCCNC(=O)COCCOCCNC(=O)COCCOCCNC(=O)CC[C@H](NC(=O)CCCCCCCCCCCCCCCCCCC(=O)O)C(=O)O)C(=O)NCC(=O)N1CCC[C@H]1C(=O)N[C@@H](CO)C(=O)N[C@@H](CO)C(=O)NCC(=O)N[C@@H](C)C(=O)N1CCC[C@H]1C(=O)N1CCC[C@H]1C(=O)N1CCC[C@H]1C(=O)N[C@@H](CO)C(N)=O)[C@@H](C)CC)[C@@H](C)CC
In the case of B2, in the assay with human GIP receptor, the “hGIPR cAMP EC50 ratio” value was 0.967 and the “hGIPR cAMP Rel EC50” value was 0.147 nM. In addition, in the assay with human GLP-1 receptor, the “hGLP1R cAMP EC50 ratio” value is 0.0217 and the “hGLP1R cAMP Rel EC50” value stood at 2.82 nM.

B3: Example 36 (peptide)
peptide: Y[Aib]EGTFTSDYSILLDKIAQ[Aib]AFIEYLK([AEEA-AEEA-γGlu-C20 diacid])EGGPSSGAPPPS-NH2
modifications: N-terminus assumed
SMILES: CC[C@H](C)[C@H](NC(=O)[C@H](CCCCN)NC(=O)[C@H](CC(=O)O)NC(=O)[C@H](CC(C)C)NC(=O)[C@H](CC(C)C)NC(=O)[C@@H](NC(=O)[C@H](CO)NC(=O)[C@H](Cc1ccc(O)cc1)NC(=O)[C@H](CC(=O)O)NC(=O)[C@H](CO)NC(=O)[C@@H](NC(=O)[C@H](Cc1ccccc1)NC(=O)[C@@H](NC(=O)CNC(=O)[C@H](CCC(=O)O)NC(=O)C(C)(C)NC(=O)[C@@H](N)Cc1ccc(O)cc1)[C@@H](C)O)[C@@H](C)O)[C@@H](C)CC)C(=O)N[C@@H](C)C(=O)N[C@@H](CCC(N)=O)C(=O)NC(C)(C)C(=O)N[C@@H](C)C(=O)N[C@@H](Cc1ccccc1)C(=O)N[C@H](C(=O)N[C@@H](CCC(=O)O)C(=O)N[C@@H](Cc1ccc(O)cc1)C(=O)N[C@@H](CC(C)C)C(=O)N[C@@H](CCCCNC(=O)COCCOCCNC(=O)COCCOCCNC(=O)CC[C@H](NC(=O)CCCCCCCCCCCCCCCCCCC(=O)O)C(=O)O)C(=O)N[C@@H](CCC(=O)O)C(=O)NCC(=O)NCC(=O)N1CCC[C@H]1C(=O)N[C@@H](CO)C(=O)N[C@@H](CO)C(=O)NCC(=O)N[C@@H](C)C(=O)N1CCC[C@H]1C(=O)N1CCC[C@H]1C(=O)N1CCC[C@H]1C(=O)N[C@@H](CO)C(N)=O)[C@@H](C)CC
In the case of B3, in the assay with human GIP receptor, the “hGIPR cAMP EC50 ratio” value amounted to 0.458 and the “hGIPR cAMP Rel EC50” value was found to be 0.309 nM. In the assay with human GLP-1 receptor, the “hGLP1R cAMP EC50 ratio” value is 0.0268 and the “hGLP1R cAMP Rel EC50” value was 2.29 nM.

B4: Example 35 (peptide)
peptide: Y[Aib]EGTFTSDYSILLDKIAQ[Aib]AFIEYK([AEEA-AEEA-γGlu-C20 diacid])IEGGPSSGAPPPS-NH2
modifications: N-terminus assumed
SMILES: CC[C@H](C)[C@H](NC(=O)[C@H](CCCCN)NC(=O)[C@H](CC(=O)O)NC(=O)[C@H](CC(C)C)NC(=O)[C@H](CC(C)C)NC(=O)[C@@H](NC(=O)[C@H](CO)NC(=O)[C@H](Cc1ccc(O)cc1)NC(=O)[C@H](CC(=O)O)NC(=O)[C@H](CO)NC(=O)[C@@H](NC(=O)[C@H](Cc1ccccc1)NC(=O)[C@@H](NC(=O)CNC(=O)[C@H](CCC(=O)O)NC(=O)C(C)(C)NC(=O)[C@@H](N)Cc1ccc(O)cc1)[C@@H](C)O)[C@@H](C)O)[C@@H](C)CC)C(=O)N[C@@H](C)C(=O)N[C@@H](CCC(N)=O)C(=O)NC(C)(C)C(=O)N[C@@H](C)C(=O)N[C@@H](Cc1ccccc1)C(=O)N[C@H](C(=O)N[C@@H](CCC(=O)O)C(=O)N[C@@H](Cc1ccc(O)cc1)C(=O)N[C@@H](CCCCNC(=O)COCCOCCNC(=O)COCCOCCNC(=O)CC[C@H](NC(=O)CCCCCCCCCCCCCCCCCCC(=O)O)C(=O)O)C(=O)N[C@H](C(=O)N[C@@H](CCC(=O)O)C(=O)NCC(=O)NCC(=O)N1CCC[C@H]1C(=O)N[C@@H](CO)C(=O)N[C@@H](CO)C(=O)NCC(=O)N[C@@H](C)C(=O)N1CCC[C@H]1C(=O)N1CCC[C@H]1C(=O)N1CCC[C@H]1C(=O)N[C@@H](CO)C(N)=O)[C@@H](C)CC)[C@@H](C)CC
Turning to B4, in the assay with human GIP receptor, the “hGIPR cAMP EC50 ratio” value was found to be 1.58 and the “hGIPR cAMP Rel EC50” value turned out to be 0.0905 nM. Besides, in the assay with human GLP-1 receptor, the “hGLP1R cAMP EC50 ratio” value was 0.00728 and the “hGLP1R cAMP Rel EC50” value came out at 8.38 nM.

(Values after patent US20220048967A1 (published 2022).)
